Data: patent US20120121591A1 (priority 2009, published 2012)

Key:
human Kv1.3 = human Kv1.3 (Homo sapiens, UniProt P22001); experiment: cell-based or functional assay
human Kv1.1 = human Kv1.1 (Homo sapiens, UniProt Q09470); experiment: cell-based or functional assay
Sequence of human Kv1.1 (Q09470 whole entry): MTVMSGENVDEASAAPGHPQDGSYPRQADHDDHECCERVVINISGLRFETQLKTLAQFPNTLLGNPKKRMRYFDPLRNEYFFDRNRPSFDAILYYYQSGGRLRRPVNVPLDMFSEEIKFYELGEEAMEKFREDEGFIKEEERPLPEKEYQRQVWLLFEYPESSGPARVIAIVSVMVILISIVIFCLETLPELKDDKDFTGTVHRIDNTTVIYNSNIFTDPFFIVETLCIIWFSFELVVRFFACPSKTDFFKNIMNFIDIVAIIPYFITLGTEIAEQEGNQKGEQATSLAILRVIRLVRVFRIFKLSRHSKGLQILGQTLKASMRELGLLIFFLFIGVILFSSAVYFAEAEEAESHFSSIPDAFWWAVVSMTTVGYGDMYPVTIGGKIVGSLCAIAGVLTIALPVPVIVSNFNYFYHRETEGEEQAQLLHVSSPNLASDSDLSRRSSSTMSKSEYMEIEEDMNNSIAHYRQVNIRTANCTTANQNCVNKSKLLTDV

Sequence of human Kv1.3 (P22001 whole entry): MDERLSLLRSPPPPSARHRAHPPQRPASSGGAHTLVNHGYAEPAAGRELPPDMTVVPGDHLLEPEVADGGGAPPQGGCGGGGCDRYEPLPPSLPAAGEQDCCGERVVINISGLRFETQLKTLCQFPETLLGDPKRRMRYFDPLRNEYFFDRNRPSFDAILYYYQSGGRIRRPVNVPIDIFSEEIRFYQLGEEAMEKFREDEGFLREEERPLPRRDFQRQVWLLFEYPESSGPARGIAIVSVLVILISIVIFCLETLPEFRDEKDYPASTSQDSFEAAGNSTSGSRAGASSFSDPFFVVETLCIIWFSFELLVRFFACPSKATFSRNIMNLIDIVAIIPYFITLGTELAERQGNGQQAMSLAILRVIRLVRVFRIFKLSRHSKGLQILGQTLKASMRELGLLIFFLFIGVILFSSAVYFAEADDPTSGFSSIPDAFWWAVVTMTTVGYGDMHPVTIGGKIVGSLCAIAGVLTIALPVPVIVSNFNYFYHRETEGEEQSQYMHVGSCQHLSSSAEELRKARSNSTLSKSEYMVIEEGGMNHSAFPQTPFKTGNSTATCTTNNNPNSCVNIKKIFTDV

Substance	Kv1.3 (IWQ) IC50 (human Kv1.3) [nM]	WB (IFNg) IC50 (human Kv1.3) [nM]	WB (IL-2) IC50 (human Kv1.3) [nM]	Kv1.1 (IWQ) IC50 (human Kv1.1) [nM]
[Glu4; Lys16,29; 1-Nal26;Arg30]ShK-amide (peptide)	0.384	0.598	0.712	–
[Glu4; Lys16,29;Arg18,30; Nle21]ShK-amide (peptide)	0.269	1.33	1.96	–
[Glu4;Lys16,29;1-Nal26;Arg30;Nle21]ShK-amide (peptide)	1.66	17.4	10.7	3.3
